Data reported in patent publication US20070003982.

B1: purified recombinant human caspase-3 (protein)
chain: SGISLDNSYKMDYPEMGLCIIINNKNFHKSTGMTSRSGTDVDAANLRETFRNLKYEVRNKNDLTREEIVELMRDVSKEDHSKRSSFVCVLLSHGEEGIIFGTNGPVDLKKITNFFRGDRCRSLTGKPKLFIIQACRGTELDCGIETDSGVDDDMACHKIPVEADFLYAYSTAPGYYSWRNSKDGSWFIQSLCAMLKQYADKLEFMHILTRVNRKVATEFESFSFDATFHAKKQIPCIVSMLTKELYFYH

How the values were obtained:
[1] = target: full length αII-spectrin, rat (UniProt P16086)
[2] = target: full length αII-spectrin, rat, P16086

Molecule | αII-spectrin fragmentation patterns (Western blot after in vitro digestion of rat brain cortex lysate) [1] | αII-spectrin fragmentation patterns (Western blot after in vitro digestion of rat brain cortex lysate) [2]
purified porcine calpain-2 | calpain-produced SBDP150 | 
B1 |  | Caspase-3-produced SBP150i
